Experimental data: patent US20230416363A1 (KADMON, published 2023)

Columns and labels:
[1] = target: T1, mPD1 (soluble, ELISA of Examples 20 and 24) (mouse, UniProt Q02242 25-167, limits assumed); test: ELISA, mPD1
T1 construct: also called Biotin-mPD1
T1 sequence (looked up): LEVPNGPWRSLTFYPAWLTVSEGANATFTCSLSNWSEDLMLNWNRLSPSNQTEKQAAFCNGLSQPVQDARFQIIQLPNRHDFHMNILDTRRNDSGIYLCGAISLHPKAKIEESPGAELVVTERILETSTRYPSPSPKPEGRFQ

mPD-1-Fc [2] = target: T2, mPD-1-Fc (mouse; human, UniProt Q02242 25-167, limits assumed); test: ELISA, mPD-1-Fc
T2 construct: domain: IgV domain; not shown: human IgG1 Fc
T2 sequence (looked up): T1 sequence (looked up)

mPD-1-Fc [3] = target: T2, mPD-1-Fc; test: SPR Biacore, mPD1-Fc
mPD-1-his [4] = target: T3, mPD-1-his (mouse, UniProt Q02242 25-167, limits assumed); test: SPR Biacore, mPD1-his
T3 construct: domain: IgV domain
T3 sequence: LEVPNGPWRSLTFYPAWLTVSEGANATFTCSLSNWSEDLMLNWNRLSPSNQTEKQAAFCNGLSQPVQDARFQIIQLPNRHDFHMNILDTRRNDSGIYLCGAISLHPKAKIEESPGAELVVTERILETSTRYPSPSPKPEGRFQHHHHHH

[5] = target: T4, mouse PD-1 expressed on cells (mouse, UniProt Q02242 25-288); test: cell-based or functional assay
T4 sequence (looked up): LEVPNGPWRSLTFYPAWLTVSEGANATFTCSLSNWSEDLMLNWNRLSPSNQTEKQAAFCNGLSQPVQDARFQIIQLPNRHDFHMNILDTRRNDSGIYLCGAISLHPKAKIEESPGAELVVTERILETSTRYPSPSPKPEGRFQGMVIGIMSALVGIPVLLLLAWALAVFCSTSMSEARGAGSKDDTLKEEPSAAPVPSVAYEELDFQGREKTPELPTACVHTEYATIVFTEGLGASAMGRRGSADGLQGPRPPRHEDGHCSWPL

[6] = target: T1, mPD1 (soluble, ELISA of Examples 20 and …); test: blocking ELISA, mPD1 to mPDL1
mPD-1-Fc [7] = target: T2, mPD-1-Fc; test: blocking ELISA, mPD-1 to PD-L1
[8] = target: T4, mouse PD-1 expressed on cells; test: flow cytometry, mPD1-293 cells
[9] = target: T4, mouse PD-1 expressed on cells; test: flow cytometry, mPD1-eff cells
mPD-1-Fc [10] = target: T2, mPD-1-Fc; test: ELISA, mPD-1-Fc on streptavidin
[11] = target: T4, mouse PD-1 expressed on cells; test: flow cytometry, mPD-1-293 cells
mPD-1-his [12] = target: T3, mPD-1-his; test: ELISA, mPD-1-his on streptavidin
[13] = target: T1, mPD1 (soluble, ELISA of Examples 20 and …); test: ELISA, biotin-mPD1 on streptavidin
[14] = target: hPD1 (soluble, ELISA of Example 20) (human, UniProt Q15116 25-167, limits assumed); test: ELISA, hPD1; direct binding ELISA on hPD1 (EC50 row)
hPD-1-Fc [15] = target: T5, hPD-1-Fc (human, UniProt Q15116 25-167); test: SPR, Exp. 1
T5 construct: domain: IgV domain; also called human PD-1-Fc; not shown: human IgG1 Fc

hPD-1-his [16] = target: T6, hPD-1-his (human, UniProt Q15116 25-167); test: SPR, Exp. 1
T6 construct: domain: IgV domain; monomer in solution; biotin-labelled where captured by streptavidin; also called biotin-hPD-1-his

hPD-1-Fc [17] = target: T5, hPD-1-Fc; test: SPR, Exp. 2
hPD-1-his [18] = target: T6, hPD-1-his; test: SPR, Exp. 2
hPD-1-Fc [19] = target: T5, hPD-1-Fc; test: SPR, Exp. 3
hPD-1-his [20] = target: T6, hPD-1-his; test: SPR, Exp. 3
hPD-1-his [21] = target: T6, hPD-1-his; test: SPR, Exp. 4
hPD-1-Fc [22] = target: T5, hPD-1-Fc; test: ELISA, PD-1-Fc coated
hPD-1-Fc [23] = target: T5, hPD-1-Fc; test: ELISA, hPD-1-Fc coated
[24] = target: T7, human PD-1 expressed on cells (human, UniProt Q15116 25-288); test: cell-based or functional assay
hPD-1-his [25] = target: T6, hPD-1-his; test: ELISA, PD-1-his on anti-his
hPD-1-his [26] = target: T6, hPD-1-his; test: ELISA, PD-1-his on anti-his; remark: listed apart in the source
hPD-1-Fc [27] = target: T5, hPD-1-Fc; test: SPR, range over experiments
hPD-1-Fc [28] = target: T5, hPD-1-Fc; test: blocking ELISA, PD-1 to PD-L1
hPD-1-Fc [29] = target: T5, hPD-1-Fc; test: blocking ELISA, PD-1 to PD-L2
[30] = target: T7, human PD-1 expressed on cells; test: flow cytometry, hPD1-293 cells
hPD-1-his [31] = target: T6, hPD-1-his; test: ELISA, PD-1-his on streptavidin
hPD-1-Fc [32] = target: T5, hPD-1-Fc; test: blocking ELISA, hPD-1 to hPD-L1; set-up: unit not given here
[33] = target: T7, human PD-1 expressed on cells; test: flow cytometry, hPD-1-293 cells
[34] = target: T7, human PD-1 expressed on cells; test: flow cytometry, hPD1-Jurkat cells
[35] = target: T7, human PD-1 expressed on cells; test: flow cytometry, hPD-1-Jurkat cells
hPD-1-Fc [36] = target: T5, hPD-1-Fc; test: SPR Biacore T200, PD-1-Fc immobilised
hPD-1-his [37] = target: T6, hPD-1-his; test: SPR Biacore T200, PD-1-his immobilised
hPD-1-his [38] = target: T6, hPD-1-his; test: ELISA, biotin-PD-1-his on streptavidin
[39] = target: T7, human PD-1 expressed on cells; test: flow cytometry, activated PBMC donor FA
[40] = target: T7, human PD-1 expressed on cells; test: flow cytometry, activated PBMC donor two
[41] = target: T7, human PD-1 expressed on cells; test: flow cytometry, SEB-activated PBMC donor
[42] = target: T7, human PD-1 expressed on cells; test: flow cytometry, SEB-activated PBMC donor two
hPD-1-his [43] = target: T6, hPD-1-his; test: SPR (Biacore), hPD1his immobilised; lower end of the printed KD range over the experiments
hPD-1-his [44] = target: T6, hPD-1-his; test: SPR (Biacore), hPD1his immobilised; upper end of the printed KD range over the experiments

T6 sequence (Q15116 other isoform, or with tags, fused parts or gaps limits assumed): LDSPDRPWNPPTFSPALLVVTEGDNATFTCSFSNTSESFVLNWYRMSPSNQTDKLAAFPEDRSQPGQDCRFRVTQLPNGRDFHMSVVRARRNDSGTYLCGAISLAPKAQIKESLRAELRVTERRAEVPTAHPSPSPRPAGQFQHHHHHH
T5 sequence (Q15116 25-167 limits assumed): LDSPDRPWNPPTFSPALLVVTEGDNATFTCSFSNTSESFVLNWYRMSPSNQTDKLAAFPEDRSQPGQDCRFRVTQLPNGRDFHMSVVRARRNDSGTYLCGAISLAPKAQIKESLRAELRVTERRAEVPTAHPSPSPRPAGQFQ
T7 sequence (Q15116 25-288): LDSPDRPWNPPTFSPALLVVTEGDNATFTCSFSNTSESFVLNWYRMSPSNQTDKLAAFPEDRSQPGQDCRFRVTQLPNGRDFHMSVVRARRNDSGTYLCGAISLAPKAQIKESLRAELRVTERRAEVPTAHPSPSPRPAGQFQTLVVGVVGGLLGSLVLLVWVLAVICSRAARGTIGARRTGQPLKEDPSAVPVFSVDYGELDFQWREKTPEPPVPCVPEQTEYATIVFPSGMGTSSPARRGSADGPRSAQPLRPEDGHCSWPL
Chain of hPD1 (soluble, ELISA of Example 20) (Q15116 25-167 limits assumed): as the sequence (Q15116 25-167 limits assumed) above

B1: R3A9 (antibody, V domains shown)
VH: QVQLVQSGAEVKKPGASVKVSCKASGHTFTSYYIHWVRQAPGQGLEWMGIINPSGGSTSYAQKFQGRVTMTRDTSTSTVYMELSSLRSEDTAVYYCARDRAYGGAGDYWGQGTLVTVSS
VL: DIQMTQSPSSLSASVGDRVTITCRASQSVGTWLAWYQQKPGKAPKLLIYSASTLQSGVPSRFSGSGSGTDFTLTISSLQPEDFATYYCQQSYSAPLTFGGGTKVEIK
notes: also called 7115A; mPD1 parental (R3A9)
[1]
  EC50: 1.36 nM
mPD-1-Fc [2]
  EC50: 14.6 nM
mPD-1-Fc [3]
  Kd: 12.1 nM
  koff: 0.0014 s⁻¹
  kon: 116000 M⁻¹ s⁻¹
mPD-1-his [4]
  Kd: 15.7 nM
  koff: 0.00641 s⁻¹
  kon: 409000 M⁻¹ s⁻¹
[5]
  IC 50, Promega assay: 1.62 µg/mL
[6]
  IC50: 0.722 nM
mPD-1-Fc [7]
  IC50: 0.441 nM
[8]
  EC50: 0.314 nM
[9]
  EC50: 0.645 nM
mPD-1-Fc [10]
  EC50: 0.156 nM
[11]
  EC50: 0.566 nM
mPD-1-his [12]
  EC50: 1.61 nM
[13]
  EC50: 0.462 nM
[14]
  EC50: 3.25 nM

B2: 38A6 (antibody, V domains shown)
VH: EVQLLESGGGLVQPGGSLRLSCAASGFTFSSYWMSWVRQAPGKGLEWVSAISGSGGSTYYADSVKGRFTISRDNSKNTLYLQMNSLRAEDTAVYYCASSPLQWVDVWGQGTTVTVSS
VL: DIQMTQSPSSLSASVGDRVTITCRASQDISRWLGWYQQKPGKAPKLLIYAASTLQSGVPSRFSGSGSGTDFTLTISSLQPEDFATYYCQQANSFPFTFGPGTKLEIK
notes: also called 780_46
hPD-1-Fc [15]
  Kd: < 0.188 nM
hPD-1-his [16]
  Kd: 2.3 nM
hPD-1-Fc [17]
  Kd: < 0.136 nM
hPD-1-his [18]
  Kd: < 0.586 nM
hPD-1-Fc [19]
  Kd: < 0.301 nM
hPD-1-his [20]
  Kd: < 0.574 nM
hPD-1-his [21]
  Kd: < 0.09 nM
hPD-1-Fc [22]
  EC50: 0.079 nM
hPD-1-Fc [23]
  OD at 10 nM: 0.993 OD
[24]
  EC50, Promega blockade bioassay: 0.164 µg/mL
  Fold induction: 5.66 fold
hPD-1-his [25]
  OD at 10 nM: 0.576 OD
hPD-1-his [26]
  EC50: 0.089 nM
hPD-1-Fc [27]
  Kd: 0.14 to 0.3 nM
hPD-1-Fc [28]
  IC50: ~2.14 nM
  Inhibition % at 50 nM: 92.2%
  Inhibition, % at 5.56 nM: 92%
hPD-1-Fc [29]
  IC50: 2.39 nM
  Inhibition, % at 3.7 nM: 90.4%
  Inhibition, % at 100 nM: 94.8%
[30]
  EC50: 0.15 nM
  MFI at 5 nM: 110 MFI
hPD-1-his [31]
  OD at 10 nM: 0.948 OD
hPD-1-Fc [32]
  Inhibition at 50 nM: 91.7
[33]
  MFI, 5 nM: 227 MFI
[34]
  EC50: 0.21 nM
  MFI at 5 nM: 89.5 MFI
[35]
  MFI, 5 nM: 59.9 MFI
hPD-1-Fc [36]
  Kd: 0.477 nM
hPD-1-his [37]
  Kd: 1.18 nM
hPD-1-his [38]
  EC50: 0.084 nM
[39]
  EC50: 0.21 nM
  MFI at 25 nM: 14.5 MFI
[40]
  EC50: 0.17 nM
  MFI at 25 nM: 15.9 MFI
[41]
  MFI, 5 nM: 65.2 MFI
[42]
  MFI, 5 nM: 54.7 MFI
hPD-1-his [43]
  Kd: ≥ 0.9 nM
hPD-1-his [44]
  Kd: ≤ 2.3 nM
